Laboratory results as given in IntAct's records for PubMed 21276203.

B1: Serine/threonine-protein kinase OXI1 (Arabidopsis thaliana (Mouse-ear cress)), Q9LSF1 (parent)
chain: MLEGDEKQSRALDFNRLEVLSLLGRGAKGVVFLVRDDDAKLLALKVILKEAIEKKKKGRESEDDEYKRVSFEQGVLSRFDHPLFPSLHGVLATDKVIGYAIDYCPGQNLNSLRKMQSESMFSDEIIRFYAAELVLALDYLHNQGIVYRDLKPDNVMIQENGHLMLIDFDLSTNLAPRTPQPSPSLSKPSPTMKRKKRLFRFTSFCNSGISPQESISVHSSSTLAVSDSSGEKSNSFVGTEEYVAPEVISGDGHDFAVDWWSLGVVLYEMLYGATPFRGSNRKETFYRILSKPPNLTGETTSLRDLIRRLLEKDPSRRINVEEIKGHDFFRGVDWEKVILVSRPPYIPAPDDGGDKGTDVNTKMDVENIVQEIFAARQEREKQSGDNNKNANMKIKDNTSGEWVKGLNNNHDLESDNNFLVF
partner: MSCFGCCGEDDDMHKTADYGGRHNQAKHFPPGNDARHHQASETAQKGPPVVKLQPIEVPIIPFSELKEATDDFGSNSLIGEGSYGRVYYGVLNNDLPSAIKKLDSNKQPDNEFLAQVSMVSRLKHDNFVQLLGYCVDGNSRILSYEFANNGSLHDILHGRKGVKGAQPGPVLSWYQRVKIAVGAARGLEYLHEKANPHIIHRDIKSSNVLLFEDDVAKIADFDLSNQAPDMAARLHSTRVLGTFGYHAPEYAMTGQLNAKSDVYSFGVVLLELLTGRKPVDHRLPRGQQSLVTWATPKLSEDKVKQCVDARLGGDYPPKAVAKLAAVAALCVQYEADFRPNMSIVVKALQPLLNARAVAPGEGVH

Variants of: B1
Details: with y2706, O80719

Row | Variant | effect of a mutation on the interaction
1 | K45R | disrupting interaction
